The target in the assay is SpyCatcher-VLP (virus-like particle of SpyCatcher-HBc) (Hepatitis B virus). The assay is described as follows: cryo-EM structure.

“SpyCatcher-VLP (virus-like particle of SpyCatcher-HBc)”: the stoichiometry N (monomers per VLP) was 180.
